From US20060233785A1, “Immunointeractive molecules and uses thereof” (priority 2001, published 2006)

System: latex-specific serum IgE
Assay: ELISA detecting latex-specific serum IgE (Example 3)
Type: binding, human
Settings: ten latex-allergic patients; serum 1:10
Description: FIG. 3 is a graphical representation of an ELISA detecting latex-specific serum IgE. ELISA plates were coated with 10 μg/ml rHev b 6 and glove extract, blocked with skim milk powder and incubated with patient (P1-10) and non-allergic control serum (NA1-6) diluted 1:10. Antibody binding was detected by incubation with rabbit anti-human IgE, swine anti-rabbit immunoglobulines-HRP and o-phenylenediamine as substrate. Mean values+SD for triplicate wells are shown. The cut-off for positive was 2 SD above the mean OD of non-allergic subjects for rHev b 6 (dotted line) and glove extract (black line).
Hybridoma supernatants were tested for reactivity to rHev b 6, glove extract and Hev b 6 peptides by ELISA using an established protocol (Sutherland et al., 2002, supra). Patient serum samples were tested for latex-specific IgE using a similar ELISA protocol with rabbit anti-human IgE (1/1000) and swine anti-rabbit immunoglobulins-horseradish peroxidase conjugate (1/1000). Monoclonal antibody isotypes were determined using a mouse immunoglobulin isotyping ELISA kit (BD Biosciences, San Diego, Calif., USA).

number of latex-allergic patients with serum IgE binding by ELISA: eight
B1: rHev b 6: recombinant Hev b 6 (prohevein) expressed in E. coli from pPROEX-HTa with 6-His tag (protein)
chain: EQCGRQAGGKLCPNNLCCSQWGWCGSTDEYCSPDHNCQSNCKDSGEGVGGGSASNVLATYHLYNSQDHGWDLNAASAYCSTWDANKPYSWRSKYGWTAFCGPVGAHGQSSCGKCLSVTNTGTGAKTTVRIVDQCSNGGLDLDVNVFRQLDTDGKGYERGHITVNYQFVDCGDSFNPLFSVMKSSVIN
modifications: left off: small tags and cut ends
notes: recombinant Hev b 6 (prohevein) expressed in E. coli from pPROEX-HTa with 6-His tag
